Values quoted from earlier work as cited in patent US7482329B2, “Single domain TDF-related compounds and analogs thereof” (Thrasos Therapeutics, priority 2002, dated 2009).

Legend:
[1] = test system: end stage renal failure in a remnant kidney; conditions: rats, administered systemically, remnant kidney (5/6 nephrectomy); cited from earlier work
[2] = test system: unilateral ureteral obstruction; conditions: rats, administered systemically, UUO; cited from earlier work

B1: TDF-1: TDF-1 (BMP-7 or OP-1), bone morphogenetic protein-7; unlabeled control ligand in the binding and cell assays (protein)
chain: STGSKQRSQNRSKTPKNQEALRMANVAENSSSDQRQACKKHELYVSFRDLGWQDWIIAPEGYAAYYCEGECAFPLNSYMNATNHAIVQTLVHFINPETVPKPCCAPTQLNAISVLYFDDSSNVILKKYRNMVVRACGCH
[1]
  progression of end stage renal failure: halts the progression of end stage renal failure
[2]
  prophylaxis in unilateral ureteral obstruction: short term prophylaxis
